Reference: the supplement of paper PMC9170038

Test system: MS2 coat protein
Assay: apparent KD of MS2 coat protein; higher = weaker reporter binding
Conditions: Eterna round: R107
In short: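 Designed RNA switches were transcribed on-chip from Illumina sequencing clusters. SNAP-549-labelled MS2 coat protein was titrated onto them in twofold steps from 0.7 or 1.5 nM to 3 µM in 100 mM Tris-HCl pH 7.5, 80 mM KCl, 4 mM MgCl2, either without or with constant ligand. Apparent KD reflects the per-design median of normalised cluster binding-curve fits.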

[1] = input ligand: theophylline 20 uM
[2] = input ligand: theophylline 2 mM
[3] = input ligand: tryptophan 2.4 mM

Sequence	apparent KD of MS2 coat protein (input ligand: arginine 13.2 mM) [nM]	apparent KD of MS2 coat protein (input ligand: none) [nM]	apparent KD of MS2 coat protein [1] [nM]	apparent KD of MS2 coat protein [2] [nM]	apparent KD of MS2 coat protein [3] [nM]
GGACUAACCAGAAGGAGCGACACGCAGAAACUGCUAAUUCCUCCGCACGAGGAUCACCCGUGUCAGGUAGGUCGCUGGUUAGUCG [ArgBX 28]	20.3	20.5	28.5	24.3	23.3
UCUAGGCUCGGAAACGAGCCUAGUACAGAAGGAGCGUGGAUUAACACAGGUAGGUCGCUGACAUGAGGAUCACCCAUGUAUUAUU [SSAA #3]	32.5	24.3	38	31	27.7
GGAAAAUAUAGGGAUACCAGAUAUGGCGUUGACAUGAGGAUCACCCAUGUCUUAGCAGUGAUCCCUUGGCAGCCCACACCAUCCG [theeternabot_sameState_MS2_Theo_B_13]	40.9		61.3		64.5
AAGGUGAUCCGUGAUACCAGCUCAACAUGAGGAUCACCCAUGUACGGGACGAAAGUCCCGGGCCCUUGGCAGCACGGUUGCCAAG [SSTheo B #20]	53.2	89.8	239	93.7	109
GGACUAACCAGAAGGAGCGACGCGCAGAAACUGCAAAAUCCUCCACACGAGGAUCACCCGUGUCAGGUAGGUCGCUGGUUAGUCG [ArgXB 16 #CuTurnoff #MS2Left #StaticStem #Blueprint]	30.2	26.6	36.1	27.2	31.3
UGAGGGACCAGAAGGAGCGACAUGAGGAUCACCCAUGUCUCCCGUUAUGGGAGUUCUUUAGGUCAGGUAGGUCGCUGGUCCCUCA [#1 Exclusion - Arginine B Attempt #7 (Inspired by Omei)]	25.6	77.9	256		
AACAUGAGGAUCACCCAUGUCUGAACUGAAGGAGCGCUAAAUAAGGCAGGUAGGUCGCGGAAUUUUGUGUACAUAUGUAUAUGGG [9.H]	21.7	25.9	32.2	35.8	23.8
ACGUAAUGCAGAAGGAGCGUCUAUGUGUUACAUGAGGAUCACCCAUGUGUUAUGUUAUGUGGACAGGUAGGUCGCUGAAGUACGA [JR_SSArginiB_Sub005]	45	127	104	134	81
GGGCCCGGGCGCGAGCCCGGGCCCAUUGAUACCAGUGAUAUAUAACGCCCUUGGCAGCGAAUCCUAACAUGAGGAUCACCCAUGU [5.G]	35.2	46.3	61.5	71.8	37
GCAUGCGAUACCGAUACCAGCUACUCCAUGGCGCUCCACAUGAGGAUCACCCAUGUAAAUAGCCCUUGGCAGCGGUAUUGAGAUG [Anrabegema]	16.4		53.9		21
CUGUUUACAUGAGCCCGUCAUAUAUACGAUACCAGUUAAAGAUGAAACCCUUGGCAGCGUAGGACAUGAGGAUCACCCAUGUGCC [theeternabot_exclusion_MS2_Theo_A_17]	15.6		21.1		18.6
GACAUUAACUGAAGGAGCGAGGUAGAACGGGAUGAGCAUACAUGAGGAUCACCCAUGUGGCCUCAGGUAGGUCGCAGAUGAGAUU [Exclusion Arginine B GF25]	83.4	175	201	203	179
UCUGGGUCCGCAAGGACCUGGAGUUGCGAUACCAGCACGGUAACGUGCCCUUGGCAGCGCACAUGAGGAUCACCCAUGUGGUGUU [#1 Exclusion - Theophylline A Attempt #17 (HarryS)]	86.6		365		204
UCAUACAUGAGGAUCACCCAUGUUCGUGGGCGAGGACCGGUACGGCCGCCACUCGUACUAACGGUUUCUUAAACUUCCUUUCGAG [theeternabot_sameState_MS2_Trp_A_49]	28.3		41.2	40.4	
ACACAAUACAUGAGGAUCACCCAUGUAAAACGAGGACCGGUACGGCCGCCACUCGAAUACUGUAAUCCUCGGAAUAUUAAGUGAA [JR_ExcTryptA_Sub002]	28.7		57.1	61.6	
AGCGACAUGCAUGAUACCAGCUACAUGAGGAUCACCCAUGUACGUCAGUAAUGACUGUGUAGCCCUUGGCAGCAUAAAGCAUGUC [Exclusion - Theophylline B (Freestyle 17)]	22.8		44.5		26.5
AAUAAUAAGAAUAACGUACCAGGUGAUCAACGAGGACCGGUACGGCCGCCACUCGAAACAUGAGGAUCACCCAUGUAAUAACAAU [|T'-M'-Trp-Ms2|_Design 2_OL]	39.7		107	124	
GGAAGCAGGACUGAUACCAGUCCAGCGAAUCAUACGACGCAACAUGAGGAUCACCCAUGUGACCCUUGGCAGCAGACUGCUACCG [Same State Theophylline B GF 27]	33.1		37.2		32.2
